B1: fusion protein of ferredoxin-thioredoxin reductase (FTRB/FTRA2) and thioredoxin Y2 fused via linker peptide (GGGGS)3 of 15 amino acid residues (protein)
chain 1: AKTEPSEKSVEIMRKFSEQYARRSGTYFCVDKGVTSVVIKGLAEHKDSYGAPLCPCRHYDDKAAEVGQGFWNCPCVPMRERKECHCMLFLTPDNDFAGKDQTITSDEIKETTANMGGGGSGGGGSGGGGSAAKKQTFNSFDDLLQNSDKPVLVDFYATWCGPCQLMVPILNEVSETLKDIIAVVKIDTEKYPSLANKYQIEALPTFILFKDGKLWDRFEGALPANQLVERIENSLQVKQ
chain 2: DIAVKSAASVDADADLSSSTSLETEEDEKAKEKIGARVRVTVPLKVYHVVRVPEVELMGMEGFIKDYVVLWKGKKISANLPFKVQFVKEIEGRGPVKFFTHLKEDEFELIDPHHHHHH
B2: fusion protein of ferredoxin-thioredoxin reductase (FTRB/FTRA2) and thioredoxin Y2 fused via linker peptide (GGGGS)2 of 10 amino acid residues (protein)
chain 1: AKTEPSEKSVEIMRKFSEQYARRSGTYFCVDKGVTSVVIKGLAEHKDSYGAPLCPCRHYDDKAAEVGQGFWNCPCVPMRERKECHCMLFLTPDNDFAGKDQTITSDEIKETTANMGGGGSGGGGSAAKKQTFNSFDDLLQNSDKPVLVDFYATWCGPCQLMVPILNEVSETLKDIIAVVKIDTEKYPSLANKYQIEALPTFILFKDGKLWDRFEGALPANQLVERIENSLQVKQ
chain 2: B1 chain 2
B3: fusion protein of ferredoxin-thioredoxin reductase (FTRB/FTRA2) and thioredoxin Y2 fused via linker peptide (GGGGS)1 of 5 amino acid residues (protein)
chain 1: AKTEPSEKSVEIMRKFSEQYARRSGTYFCVDKGVTSVVIKGLAEHKDSYGAPLCPCRHYDDKAAEVGQGFWNCPCVPMRERKECHCMLFLTPDNDFAGKDQTITSDEIKETTANMGGGGSAAKKQTFNSFDDLLQNSDKPVLVDFYATWCGPCQLMVPILNEVSETLKDIIAVVKIDTEKYPSLANKYQIEALPTFILFKDGKLWDRFEGALPANQLVERIENSLQVKQ
chain 2: B1 chain 2

Molecular target: β-lactoglobulin

Row | Protein | allergenic protein degradation rate | allergenic protein residual rate | reductase activity (AMS labelling, SDS-PAGE)
1 | B1 | the degradation rate was 56% | the allergenic protein residual rate was 44% | The reduced form of the allergenic protein was detected in all of (b) to (d) in FIG. 11, confirming reductase activity
2 | B2 | the degradation rate was 58% | the allergenic protein residual rate was 42% | The reduced form of the allergenic protein was detected in all of (b) to (d) in FIG. 11, confirming reductase activity
3 | B3 | the degradation rate was 29% | the allergenic protein residual rate was 71% | The reduced form of the allergenic protein was detected in all of (b) to (d) in FIG. 11, confirming reductase activity
